PMC8065111 (Nature Communications, 2021)

Tests used:
GST-IQGAP1-DBR (human) = GST-IQGAP1-DBR (human) (UniProt P46940); test: BLI; Octet RED96; GST-tagged ligands on GST biosensors; analyte 0.5 nM to 5 μM; PBS, 0.002% Tween-20, 0.1 mg/ml BSA; 30 °C; one site-specific binding, saturation curve
DIAPH1 (Homo sapiens) = DIAPH1 (Homo sapiens) (UniProt O60610); test: BLI; details: cited from earlier work
MBP-CLIP170-NT [1] = molecular target: T1, MBP-CLIP170-NT (human); test: BLI; individual test 2
T1 chain: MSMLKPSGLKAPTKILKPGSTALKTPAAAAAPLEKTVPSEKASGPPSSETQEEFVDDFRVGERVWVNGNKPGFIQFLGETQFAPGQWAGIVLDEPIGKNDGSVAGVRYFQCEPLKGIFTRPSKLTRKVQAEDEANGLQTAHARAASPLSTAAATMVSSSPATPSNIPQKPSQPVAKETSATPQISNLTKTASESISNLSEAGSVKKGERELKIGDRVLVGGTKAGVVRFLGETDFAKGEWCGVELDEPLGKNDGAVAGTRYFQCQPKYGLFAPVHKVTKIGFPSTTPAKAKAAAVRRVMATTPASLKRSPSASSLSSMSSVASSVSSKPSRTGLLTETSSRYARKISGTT

His6-DIAPH1-NT = molecular target: T2, His6-DIAPH1-NT (human, UniProt O60610 1-575); test: pull-down; 0.05 nmol GST-IQGAP1-DBR immobilised on GST beads, first partner equimolar 1 h, then second partner equimolar 1 h; 25 mM HEPES pH 7.5, 250 mM NaCl, 100 mM KCl, 0.5 mM beta-mercaptoethanol, 1 mM PMSF, 0.1% Triton X-100; 4 °C; anti-His6 and anti-MBP blots; details: both partners purified
T2 construct: human DIAPH1, N-terminal fragment, residues 1-575 of the 1272-residue protein; plasmid pET30a-DIAPH1-NT(1-575aa); Plasmid was a gift from J. Copeland; also called N-terminal fragment of DIAPH1; DIAPH1 N-terminal regulatory domains; source: E. coli BL21, purified (nickel-Sepharose)

MBP-CLIP170-NT [2] = molecular target: T1, MBP-CLIP170-NT; test: BLI; individual test 1

T2 sequence (O60610 1-575): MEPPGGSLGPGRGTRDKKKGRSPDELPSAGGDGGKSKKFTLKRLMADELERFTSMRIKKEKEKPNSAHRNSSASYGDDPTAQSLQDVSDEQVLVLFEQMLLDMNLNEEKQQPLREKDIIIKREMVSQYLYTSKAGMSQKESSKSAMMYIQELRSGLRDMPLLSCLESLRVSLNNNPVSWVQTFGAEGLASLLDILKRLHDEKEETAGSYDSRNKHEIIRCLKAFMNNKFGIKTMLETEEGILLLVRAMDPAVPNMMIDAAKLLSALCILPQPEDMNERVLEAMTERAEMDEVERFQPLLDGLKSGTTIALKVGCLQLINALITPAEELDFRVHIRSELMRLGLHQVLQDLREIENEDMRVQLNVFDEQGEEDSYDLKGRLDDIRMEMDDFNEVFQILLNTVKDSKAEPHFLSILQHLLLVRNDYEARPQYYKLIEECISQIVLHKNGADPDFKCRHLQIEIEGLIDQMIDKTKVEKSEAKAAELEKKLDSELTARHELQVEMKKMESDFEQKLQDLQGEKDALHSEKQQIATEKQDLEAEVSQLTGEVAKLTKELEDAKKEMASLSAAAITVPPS
Sequence of DIAPH1 (Homo sapiens) (O60610 whole entry): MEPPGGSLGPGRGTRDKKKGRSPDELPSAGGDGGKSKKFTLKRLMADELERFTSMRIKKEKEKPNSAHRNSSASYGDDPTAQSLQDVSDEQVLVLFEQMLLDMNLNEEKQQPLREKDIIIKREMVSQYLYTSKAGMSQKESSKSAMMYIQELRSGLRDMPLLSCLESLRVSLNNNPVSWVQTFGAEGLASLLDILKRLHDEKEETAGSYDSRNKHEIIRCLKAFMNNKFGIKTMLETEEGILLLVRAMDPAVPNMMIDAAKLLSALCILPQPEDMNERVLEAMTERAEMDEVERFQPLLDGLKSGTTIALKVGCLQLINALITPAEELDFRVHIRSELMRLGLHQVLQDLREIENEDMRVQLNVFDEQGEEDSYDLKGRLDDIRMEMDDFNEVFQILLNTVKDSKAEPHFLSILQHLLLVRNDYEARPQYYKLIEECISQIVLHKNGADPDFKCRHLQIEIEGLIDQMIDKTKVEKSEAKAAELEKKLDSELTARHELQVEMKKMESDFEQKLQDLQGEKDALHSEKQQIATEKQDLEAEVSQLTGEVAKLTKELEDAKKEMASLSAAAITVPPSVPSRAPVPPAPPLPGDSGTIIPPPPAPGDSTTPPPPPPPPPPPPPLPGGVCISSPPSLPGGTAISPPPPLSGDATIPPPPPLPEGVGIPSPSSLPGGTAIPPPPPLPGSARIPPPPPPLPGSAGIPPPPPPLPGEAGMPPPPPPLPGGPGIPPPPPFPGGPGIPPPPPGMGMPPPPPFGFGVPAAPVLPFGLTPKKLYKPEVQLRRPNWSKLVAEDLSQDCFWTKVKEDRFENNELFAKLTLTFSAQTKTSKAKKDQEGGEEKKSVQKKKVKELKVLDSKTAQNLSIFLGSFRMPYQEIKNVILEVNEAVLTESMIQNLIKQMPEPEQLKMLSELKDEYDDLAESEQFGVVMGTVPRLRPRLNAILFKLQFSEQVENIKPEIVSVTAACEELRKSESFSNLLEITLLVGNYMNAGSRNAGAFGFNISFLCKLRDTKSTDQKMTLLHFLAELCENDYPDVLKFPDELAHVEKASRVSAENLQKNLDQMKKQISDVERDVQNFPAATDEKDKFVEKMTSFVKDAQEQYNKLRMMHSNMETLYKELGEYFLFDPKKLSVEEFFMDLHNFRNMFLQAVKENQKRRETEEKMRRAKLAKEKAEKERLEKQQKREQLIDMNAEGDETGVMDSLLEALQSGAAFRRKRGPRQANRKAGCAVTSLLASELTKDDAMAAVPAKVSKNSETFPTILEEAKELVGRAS

With MBP-CLIP170-NT (domain or fragment) the Kd (GST-IQGAP1-DBR (human)) was 20.5 nM.

For IQGAP1 (from UniProt P46940), the Kd (DIAPH1 (Homo sapiens)) is given as 81.2 nM.

B1: GST-IQGAP1-DBR (domain or fragment, human, UniProt P46940 1500-1657, looked up)
chain: KAELVKLQQTYAALNSKATFYGEQVDYYKSYIKTCLDNLASKGKVSKKPREMKGKKSKKISLKYTAARLHEKGVLLEIEDLQVNQFKNVIFEISPTEEVGDFEVKAKFMGVQMETFMLHYQDLLQLQYEGVAVMKLFDRAKVNVNLLIFLLNKKFYGK
notes: cloned into pDEST15; also called IQGAP-DBR; source: E. coli BL21, purified (glutathione beads)
With B1 the Kd (MBP-CLIP170-NT [1]) was 15.6 nM, the binding result (His6-DIAPH1-NT) was “binds” and the Kd (MBP-CLIP170-NT [2]) was 24.1 nM.
